The results in this text go back to patent US20220251236A1 (Boehringer Ingelheim, published 2022).

Changes are numbered by the printed parent chain.

Experiment [1] has as its target T1, trypsin inhibitor from glycine max soybean (Glycine max (soybean)).
T1 construct: also called Tryp
The experiment in a line: SPR (Biacore T200), trypsin inhibitor on CM5 chip, sample at 1 µM. From the text:
To prepare the surface for the non-specific binding experiment, chicken egg white lysozyme and trypsin inhibitor from glycine max soybean were coupled manually to a series S CM5 chip with the surface density of 3000-5000 RU using the amine coupling kit according to the manufacture instructions.
On the technique in general: Surface plasmon resonance follows binding to a sensor surface in real time, without labels.

For experiment [2], the target named is T2, human DLL3 (endogenous, on SCLC cell lines NCI-H82 and SHP77 and in SCLC tissue) (human, UniProt Q9NYJ7 27-618).
T2 sequence (looked up): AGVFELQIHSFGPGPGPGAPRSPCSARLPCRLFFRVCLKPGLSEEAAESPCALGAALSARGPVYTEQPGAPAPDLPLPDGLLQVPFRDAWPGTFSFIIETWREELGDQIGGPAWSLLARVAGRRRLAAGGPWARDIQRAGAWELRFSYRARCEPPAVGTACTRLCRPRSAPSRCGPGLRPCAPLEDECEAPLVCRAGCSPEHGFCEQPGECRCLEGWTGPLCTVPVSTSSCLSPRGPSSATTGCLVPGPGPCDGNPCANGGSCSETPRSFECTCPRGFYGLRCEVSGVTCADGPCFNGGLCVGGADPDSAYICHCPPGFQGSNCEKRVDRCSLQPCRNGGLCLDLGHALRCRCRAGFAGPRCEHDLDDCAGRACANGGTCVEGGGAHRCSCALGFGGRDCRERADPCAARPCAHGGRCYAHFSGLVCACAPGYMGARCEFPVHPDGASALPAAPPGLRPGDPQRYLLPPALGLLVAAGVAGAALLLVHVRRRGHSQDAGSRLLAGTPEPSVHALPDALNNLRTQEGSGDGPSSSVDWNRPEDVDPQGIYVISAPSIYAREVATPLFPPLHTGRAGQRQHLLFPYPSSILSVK
As to the kind of experiment: cell-based or functional assay.

Experiment [3] addresses T3, EGF6+MEMBRANE PROXIMAL PEPTIDE.
T3 construct: also called Hu DLL3 EGF6+membrane proximal peptide on HEK293 cells
T3 membrane-anchored DLL3 subdomain construct: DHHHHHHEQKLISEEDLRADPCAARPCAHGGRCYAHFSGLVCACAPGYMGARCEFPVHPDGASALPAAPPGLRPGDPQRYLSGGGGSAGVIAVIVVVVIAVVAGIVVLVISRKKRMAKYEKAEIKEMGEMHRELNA
As to the kind of experiment: flow cytometry on HEK293 cells expressing the DLL3 subdomain construct, 1.6 nM binder, PE anti-human secondary, control: secondary antibody only. In outline: (§1)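 Binders tested on HEK293 cells displaying the DLL3 subdomain construct; bound molecules detected by flow cytometry using PE-conjugated anti-human secondary antibody. Negative control: cells with secondary antibody only.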

The target in experiment [4] is T4, EGF1+2.
T4 construct: also called Hu DLL3 EGF1+2 on HEK293 cells
T4 membrane-anchored DLL3 subdomain construct: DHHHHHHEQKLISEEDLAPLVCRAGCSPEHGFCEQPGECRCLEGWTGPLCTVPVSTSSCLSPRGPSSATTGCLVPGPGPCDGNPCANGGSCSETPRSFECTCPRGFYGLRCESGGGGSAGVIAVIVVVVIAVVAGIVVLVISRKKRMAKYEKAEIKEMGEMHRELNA
As to the kind of experiment: flow cytometry on HEK293 cells expressing the DLL3 subdomain construct, PE anti-human secondary, control: secondary antibody only. The procedure, abridged: as §1
(A flow cytometer gives signals particle by particle.)

In experiment [5] the target is T5, EGF4+5.
T5 construct: also called Hu DLL3 EGF4+5 on HEK293 cells
T5 membrane-anchored DLL3 subdomain construct: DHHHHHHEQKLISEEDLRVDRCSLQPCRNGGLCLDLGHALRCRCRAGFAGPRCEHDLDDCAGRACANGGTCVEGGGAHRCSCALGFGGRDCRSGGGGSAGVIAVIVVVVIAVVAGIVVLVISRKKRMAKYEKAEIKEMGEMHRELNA
Described as above. In outline:
as §1

In experiment [6] the target is T6, EGF5+6.
T6 construct: also called Hu DLL3 EGF5+6 on HEK293 cells
T6 membrane-anchored DLL3 subdomain construct: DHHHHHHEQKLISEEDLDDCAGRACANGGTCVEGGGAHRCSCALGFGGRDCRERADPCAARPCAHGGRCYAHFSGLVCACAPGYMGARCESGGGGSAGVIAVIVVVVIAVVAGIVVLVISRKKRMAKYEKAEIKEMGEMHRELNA
The experiment is described as above. In outline: as §1

The target in experiment [7] is T7, EGF3+4.
T7 construct: also called Hu DLL3 EGF3+4 on HEK293 cells
T7 membrane-anchored DLL3 subdomain construct: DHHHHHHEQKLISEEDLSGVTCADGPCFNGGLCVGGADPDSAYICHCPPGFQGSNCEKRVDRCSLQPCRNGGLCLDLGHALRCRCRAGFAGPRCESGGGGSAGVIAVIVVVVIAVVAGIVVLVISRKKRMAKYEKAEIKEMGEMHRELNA
The description is as above. In outline:
as §1

In experiment [8] the target is T8, EGF2+3.
T8 construct: also called Hu DLL3 EGF2+3 on HEK293 cells
T8 membrane-anchored DLL3 subdomain construct: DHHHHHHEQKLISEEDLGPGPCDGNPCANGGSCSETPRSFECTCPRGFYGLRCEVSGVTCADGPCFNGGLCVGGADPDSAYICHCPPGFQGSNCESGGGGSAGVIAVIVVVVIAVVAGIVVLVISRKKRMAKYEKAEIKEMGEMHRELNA
The description is as above. The procedure, abridged: as §1

In experiment [9] the target is T2, human DLL3 (endogenous, on SCLC cell …). The experiment in a line: cell-based or functional assay. The source holds these as a separate data set.

T1 sequence (P01070 25-205): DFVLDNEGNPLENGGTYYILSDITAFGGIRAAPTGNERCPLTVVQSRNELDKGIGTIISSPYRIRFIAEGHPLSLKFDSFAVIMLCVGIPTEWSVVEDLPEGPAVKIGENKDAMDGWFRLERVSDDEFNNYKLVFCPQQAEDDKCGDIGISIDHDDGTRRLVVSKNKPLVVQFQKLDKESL

B1: DLL3#3/CD3#1 (bispecific antibody, human IgG1, kappa, lambda, L234A L235A)
chain 1: DIQMTQSPSAMSASVGDRVTITCRASQGISNYLVWFQQKPGKAPKRLIYAVSSLYSGVPSRFSGSGSGTEFTLTISSLQPEDFATYYCLQHDSYPYTFGQGTKLEIKRTVAAPSVFIFPPSDEQLKSGTASVVCLLNNFYPREAKVQWKVDNALQSGNSQESVTEQDSKDSTYSLSSTLTLSKADYEKHKVYACEVTHQGLSSPVTKSFNRGECGGGGSEGKSSGSGSESKSTEGKSSGSGSESKSTGGGGSQVQLVQSGAEVKKPGASVKVSCKASGYTFTSYYVHWVRQAPGQGLEWMVIINPGGGTTSYAQKFLGRVTMTRDTSTNTVYMELKSLRSEDTAVYYCARGEAVTGNYFYYGMDVWGQGTTVTVSSASTKGPSVFPLAPSSKSTSGGTAALGCLVKDYFPEPVTVSWNSGALTSGVHTFPAVLQSSGLYSLSSVVTVPSSSLGTQTYICNVNHKPSNTKVDKRVEPKSCDKTHTCPPCPAPEAAGGPSVFLFPPKPKDTLMISRTPEVTCVVVDVSHEDPEVKFNWYVDGVEVHNAKTKPREEQYNSTYRVVSVLTVLHQDWLNGKEYKCKVSNKALPAPIEKTISKAKGQPREPQVYTLPPSREEMTKNQVSLWCLVKGFYPSDIAVEWESNGQPENNYKTTPPVLDSDGSFFLYSKLTVDKSRWQQGNVFSCSVMHEALHNHYTQKSLSLSPG
chain 2: EAVVTQEPSLTVSPGGTVTLTCRSSTGAVTTSNYANWVQEKPGQLPRGLIGGTNKRAPWVPARFSGSLLGGKAALTLSGAQPEDEAEYFCALWYSNLWVFGGGTKLTVLGQPKAAPSVTLFPPSSEELQANKATLVCLISDFYPGAVKVAWKADGSPVNTGVETTTPSKQSNNKYAASSYLSLTPEQWKSHRSYSCQVTHEGSTVEKTVAPAECSGGGGSEGKSSGSGSESKSTEGKSSGSGSESKSTGGGGSEVQLVESGGGLVQPGGSLKLSCAASGFTFNTYAMNWVRQAPGKGLEWVARIRSKYNNYATYYADSVKDRFTISRDDSKNTAYLQMNNLKTEDTAVYYCVRHGNFGNSYVSWFAYWGQGTLVTVSAASTKGPSVFPLAPSSKSTSGGTAALGCLVKDYFPEPVTVSWNSGALTSGVHTFPAVLQSSGLYSLSSVVTVPSSSLGTQTYICNVNHKPSNTKVDKRVEPKSCDKTHTCPPCPAPEAAGGPSVFLFPPKPKDTLMISRTPEVTCVVVDVSHEDPEVKFNWYVDGVEVHNAKTKPREEQYNSTYRVVSVLTVLHQDWLNGKEYKCKVSNKALPAPIEKTISKAKGQPREPQVYTLPPSREEMTKNQVSLSCAVKGFYPSDIAVEWESNGQPENNYKTTPPVLDSDGSFFLVSKLTVDKSRWQQGNVFSCSVMHEALHNRFTQKSLSLSPG
notes: Heterodimer of one DLL3 chain and one CD3 chain (scFab-Fc, knob-in-hole)
As for B1, in [1], the “Non-specific binding (RU)” value was 85 RU. For the same molecule, in [2], the “EC90, 72 hour cytotoxicity assay, purified T cells as effector cells, NCI-H82 target cells” value was 0.27 nM. In experiment [2], the “EC90, 72 hour cytotoxicity assay, purified T cells as effector cells, SHP77 target cells” value came to 0.02 nM. The binding result in [3] was “binds”; in experiment [4], “no binding (tested: 1.6 nM)”; in [5], “no binding (tested: 1.6 nM)”; in experiment [6] it was “no binding (tested: 1.6 nM)”; in experiment [7], “no binding (tested: 1.6 nM)”; in experiment [8], “no binding (tested: 1.6 nM)”. The “EC90, 72 hour cytotoxicity assay (LDH release), non-stimulated PBMCs as effector cells, NCI-H82 target cells” value in [9] came out at 0.9 nM. In addition, in experiment [9], the “EC90, 72 hour cytotoxicity assay (LDH release), non-stimulated PBMCs as effector cells, SHP77 target cells” value was determined as 1.5 nM.

B2: DLL3#3/CD3#2 (bispecific antibody, human IgG1, kappa, lambda, L234A L235A)
chain 1: B1 chain 1
chain 2: B1 chain 2 with N309I
notes: as for B1
Take B2: the “Non-specific binding (RU)” value in [1] amounted to 36 RU. The “EC90, 72 hour cytotoxicity assay, purified T cells as effector cells, NCI-H82 target cells” value in experiment [2] stood at 2.5 nM. In experiment [2], the “EC90, 72 hour cytotoxicity assay, purified T cells as effector cells, SHP77 target cells” value is 3 nM. Further, the binding result in [3] is reported as “binds”; in experiment [4] it was “no binding (tested: 1.6 nM)”; in experiment [5], “no binding (tested: 1.6 nM)”; in [6], “no binding (tested: 1.6 nM)”; in experiment [7], “no binding (tested: 1.6 nM)”; in [8], “no binding (tested: 1.6 nM)”. In experiment [9], the “EC90, 72 hour cytotoxicity assay (LDH release), non-stimulated PBMCs as effector cells, NCI-H82 target cells” value came out at 3.9 nM. The “EC90, 72 hour cytotoxicity assay (LDH release), non-stimulated PBMCs as effector cells, SHP77 target cells” value in experiment [9] was determined as 16.5 nM.
